According to patent US20240301031A1 (JIANGSU HENGRUI PHARMACEUTICALS, published 2024):

B1: TACI-4 Fc (Fc fusion)
chain: GGRSRVDQEERFPQGLWTGVAMRSCPEEQYWDPLLGTCMSCKTICNHQSQRTCAAFCRSLSCRKEQGKFYDHLLRDCISCASICGQHPKQCAYFCENKLRSPVNLPPELRKQRSGEVENNSDNSGKYQGLEHRGSEASPALPGLKLSADQVALVYSDKTHTCPPCPAPEAEGAPSVFLFPPKPKDTLMISRTPEVTCVVVDVSHEDPEVKFNWYVDGVEVHNAKTKPREEQYNSTYRVVSVLTVLHQDWLNGKEYKCKVSNKALPSSIEKTISKAKGQPREPQVYTLPPSRDELTKNQVSLTCLVKGFYPSDIAVEWESNGQPENNYKTTPPVLDSDGSFFLYSKLTVDKSRWQQGNVFSCSVMHEALHNHYTQKSLSLSPGK
notes: two identical polypeptides
B2: TACI-5 Fc (Fc fusion)
chain: GGRSRVDQEERFPQGLWTGVAMRSCPEEQYWDPLLGTCMSCKTICNHQSQRTCAAFCRSLSCRKEQGKFYDHLLRDCISCASICGQHPKQCAYFCENKLRSPVNLPPELRKQRSGEVENNSDNSGDKTHTCPPCPAPEAEGAPSVFLFPPKPKDTLMISRTPEVTCVVVDVSHEDPEVKFNWYVDGVEVHNAKTKPREEQYNSTYRVVSVLTVLHQDWLNGKEYKCKVSNKALPSSIEKTISKAKGQPREPQVYTLPPSRDELTKNQVSLTCLVKGFYPSDIAVEWESNGQPENNYKTTPPVLDSDGSFFLYSKLTVDKSRWQQGNVFSCSVMHEALHNHYTQKSLSLSPGK
notes: two identical polypeptides
B3: TACI-2 Fc (Fc fusion)
chain: SGLGRSRKGGKSRVDQEERFPQGLWTGVAMRSCPEEQYWDPLLGTCMSCKTICNHQSQRTCAAFCRSLSCRKEQGKFYDHLLRDCISCASICGQHPKQCAYFCENKLRSPVNLPPELRKQRSGEVENNSDNSGDKTHTCPPCPAPEAEGAPSVFLFPPKPKDTLMISRTPEVTCVVVDVSHEDPEVKFNWYVDGVEVHNAKTKPREEQYNSTYRVVSVLTVLHQDWLNGKEYKCKVSNKALPSSIEKTISKAKGQPREPQVYTLPPSRDELTKNQVSLTCLVKGFYPSDIAVEWESNGQPENNYKTTPPVLDSDGSFFLYSKLTVDKSRWQQGNVFSCSVMHEALHNHYTQKSLSLSPGK
notes: two identical polypeptides
B4: TACI-1 Fc (Fc fusion)
chain: SGLGRSRKGGKSRVDQEERFPQGLWTGVAMRSCPEEQYWDPLLGTCMSCKTICNHQSQRTCAAFCRSLSCRKEQGKFYDHLLRDCISCASICGQHPKQCAYFCENKLRSPVNLPPELRKQRSGEVEQNSDNSGKYQGLEHRGSEASPALPGLKLSADQVALVYSDKTHTCPPCPAPEAEGAPSVFLFPPKPKDTLMISRTPEVTCVVVDVSHEDPEVKFNWYVDGVEVHNAKTKPREEQYNSTYRVVSVLTVLHQDWLNGKEYKCKVSNKALPSSIEKTISKAKGQPREPQVYTLPPSRDELTKNQVSLTCLVKGFYPSDIAVEWESNGQPENNYKTTPPVLDSDGSFFLYSKLTVDKSRWQQGNVFSCSVMHEALHNHYTQKSLSLSPGK
notes: two identical polypeptides
B5: TACI-6 Fc (Fc fusion)
chain: GGRSRVDQEERFPQGLWTGVAMRSCPEEQYWDPLLGTCMSCKTICNHQSQRTCAAFCRSLSCRKEQGKFYDHLLRDCISCASICGQHPKQCAYFCENKLRSPVNLPPELRKQRSGEVEDKTHTCPPCPAPEAEGAPSVFLFPPKPKDTLMISRTPEVTCVVVDVSHEDPEVKFNWYVDGVEVHNAKTKPREEQYNSTYRVVSVLTVLHQDWLNGKEYKCKVSNKALPSSIEKTISKAKGQPREPQVYTLPPSRDELTKNQVSLTCLVKGFYPSDIAVEWESNGQPENNYKTTPPVLDSDGSFFLYSKLTVDKSRWQQGNVFSCSVMHEALHNHYTQKSLSLSPGK
notes: two identical polypeptides
B6: TACI-3 Fc (Fc fusion)
chain: SGLGRSRKGGKSRVDQEERFPQGLWTGVAMRSCPEEQYWDPLLGTCMSCKTICNHQSQRTCAAFCRSLSCRKEQGKFYDHLLRDCISCASICGQHPKQCAYFCENKLRSPVNLPPELRKQRSGEVEDKTHTCPPCPAPEAEGAPSVFLFPPKPKDTLMISRTPEVTCVVVDVSHEDPEVKFNWYVDGVEVHNAKTKPREEQYNSTYRVVSVLTVLHQDWLNGKEYKCKVSNKALPSSIEKTISKAKGQPREPQVYTLPPSRDELTKNQVSLTCLVKGFYPSDIAVEWESNGQPENNYKTTPPVLDSDGSFFLYSKLTVDKSRWQQGNVFSCSVMHEALHNHYTQKSLSLSPGK
notes: two identical polypeptides

Molecular target: T1, human BAFF (10056-HNCH, Sino biological) (human, UniProt Q9Y275 134-285)
T1 construct: Bought protein
Experiment: competition ELISA: biotin-labeled BAFF to coated BAFF-R
Experimental: The blocking activity of the antibodies and the fusion proteins for receptors and ligands such as BAFF/BAFF-R, BAFF/BCMA, BAFF/TACI, APRIL/BCMA, APRIL/TACI, and p40/IL-12R1 was assayed by the ELISA method. The specific procedures were as follows:
A receptor protein was diluted to 2 μg/mL with PBS at pH 7.4 (BasalMedia, B320) and added to a 96-well microplate (Corning, 3590) at 100 μL/well. The plate was incubated at 4° C. overnight. After the liquid was discarded, 200 μL of 1% Casein blocking solution (Thermo, 37528) was added to each well for blocking, and the plate was incubated at 37° C. for 2 h. After the blocking was completed, the blocking solution was discarded, and the plate was washed 3 times with a PBST buffer (PBS at pH 7.4 containing 0.1% tween-20) for later use. A biotin-labeled ligand protein at a fixed concentration was mixed with the antibody or fusion protein diluted in gradient, pre-incubated at 37° C. for 30 min, and added to a blocked microplate. The plate was incubated at 37° C. for 1.5 h. After the incubation was completed, the plate was washed 3 times with PBST. 100 μL of streptavidin-HRP (Invitrogen, 434323, diluted at a ratio of 1:4000) was added to each well, and the plate was incubated at 37° C. for 1 h. The supernatant was removed, and the plate was washed 3 times with PBST. 100 μL of TMB chromogenic substrate (KPL, 5120-0077) was added to each well, and the plate was incubated at room temperature for 10-15 min. The reaction was stopped by adding 50 μL of 1 M H₂SO₄ to each well. The plate was read for absorbance values at 450 nm on a microplate reader, the curves for the inhibition of the binding of the ligands to the receptors were fitted with software, and the IC₅₀ values were calculated.

Binder	IC50
B1	33.5 nM
B2	25.4 nM
B3	42.9 nM
B4	44.7 nM
B5	18.5 nM
B6	826 nM
